Positions of bridges follow the written chain, without caps; N, C: chain ends. No end group written: not given here. *: point of attachment. Biotin = O=C1N[C@H]2[C@H](CS[C@H]2CCCCC(=O)*)N1; βAla = NCCC(=O)O
T1: Prefoldin from Pyrococcus horikoshii (PhPFD, α2β4 heterohexamer, 86.4 kDa) (Pyrococcus horikoshii, UniProt O58263 1-148; O58268 1-117, S98G)
T1 construct: Prefoldin α-subunit, Pyrococcus horikoshii, with the point mutation S98G; Prefoldin β-subunit, Pyrococcus horikoshii; Used unlabelled (NMR titration, BLI, EM, ThT assays) and, for the PRE experiments, highly deuterated with 15N or 13CH3 labels on either the α- or the β-subunit; also called archaeal prefoldin; source: E. coli BL21 (DE3), α- and β-subunit from separate pET23c plasmids, purified …
T1 sequence 1: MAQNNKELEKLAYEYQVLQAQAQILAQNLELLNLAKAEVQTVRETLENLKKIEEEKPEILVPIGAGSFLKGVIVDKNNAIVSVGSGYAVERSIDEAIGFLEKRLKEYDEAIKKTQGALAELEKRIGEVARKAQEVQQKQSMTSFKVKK
T1 sequence 2: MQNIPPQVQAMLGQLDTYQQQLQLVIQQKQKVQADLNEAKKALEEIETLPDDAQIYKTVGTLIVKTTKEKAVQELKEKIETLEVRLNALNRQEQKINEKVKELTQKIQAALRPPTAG


What was measured:
[1] = target: T1, Prefoldin from Pyrococcus horikoshii …; experiment: BLI; biotinylated monomeric IAPP immobilised on Super Streptavidin biosensors, quenched with biotin; PhPFD 0.5 µM to 150 µM in solution; room temperature; 50 mM MES/NaOH (pH 6.5), 25 mM MgCl2; steady state analysis; conditions: both partners purified
[2] = target: T1, Prefoldin from Pyrococcus horikoshii …; experiment: NMR titration; unlabeled PhPFD added to 29 µM U-[15N]-IAPP, ratios 1:0 to 1:8; 2D 15N-SOFAST-HMQC at 30 °C; 25 mM MES/NaOH (pH 6.5), 25 mM MgCl2; TITAN global lineshape fitting, two-state model assuming 1:1 stoichiometry; apparent; conditions: both partners purified

Kd [1] [µM] | Kd [2] [µM] | koff [2] [s⁻¹] | Binder
11 ± 1.2 |  |  | {Biotin-βAla-βAla}-KCNTATCATQRLANFLVHSSNNFGAILSSTNVGSNTY-NH2 (disulfide 2-7; SMILES CC[C@H](C)[C@H](NC(=O)[C@H](C)NC(=O)CNC(=O)[C@H](Cc1ccccc1)NC(=O)[C@H](CC(N)=O)NC(=O)[C@H](CC(N)=O)NC(=O)[C@H](CO)NC(=O)[C@H](CO)NC(=O)[C@H](Cc1c[nH]cn1)NC(=O)[C@@H](NC(=O)[C@H](CC(C)C)NC(=O)[C@H](Cc1ccccc1)NC(=O)[C@H](CC(N)=O)NC(=O)[C@H](C)NC(=O)[C@H](CC(C)C)NC(=O)[C@H](CCCNC(=N)N)NC(=O)[C@H](CCC(N)=O)NC(=O)[C@@H](NC(=O)[C@H](C)NC(=O)[C@@H]1CSSC[C@H](NC(=O)[C@H](CCCCN)NC(=O)CCNC(=O)CCNC(=O)CCCC[C@@H]2SC[C@@H]3NC(=O)N[C@@H]32)C(=O)N[C@@H](CC(N)=O)C(=O)N[C@@H]([C@@H](C)O)C(=O)N[C@@H](C)C(=O)N[C@@H]([C@@H](C)O)C(=O)N1)[C@@H](C)O)C(C)C)C(=O)N[C@@H](CC(C)C)C(=O)N[C@@H](CO)C(=O)N[C@@H](CO)C(=O)N[C@H](C(=O)N[C@@H](CC(N)=O)C(=O)N[C@H](C(=O)NCC(=O)N[C@@H](CO)C(=O)N[C@@H](CC(N)=O)C(=O)N[C@H](C(=O)N[C@@H](Cc1ccc(O)cc1)C(N)=O)[C@@H](C)O)C(C)C)[C@@H](C)O, Human islet amyloid polypeptide (IAPP, amylin), 37 residues; numbers count on: the mature protein; Molecular mass 4271.9 Da, purity 99.2%; also called monomeric biotinylated IAPP; source: synthetic peptide (custom synthesized, Pepscan, Lelystad); not shown: biotin, N-terminal, kept) [biotinylated IAPP (biotinyl-[β-Ala]-[β-Ala]-IAPP-NH2), monomeric]
 | 61 | ~6000 | KCNTATCATQRLANFLVHSSNNFGAILSSTNVGSNTY-OH (ends and bridges not checked; also: U-[15N] isotope label, Human islet amyloid polypeptide (IAPP, amylin); numbers count on: the mature protein; also called U-[15N]-IAPP; monomeric IAPP; source: preparative RP-HPLC as final step) [U-[15N]-labeled recombinant human IAPP (non-amidated), monomeric]
